According to doi:10.1101/2022.06.05.494914:

Target: PTH 1 receptor (PTH1R), his-tagged (UniProt Q03431)
Experiment: BLI

UniProt Q03431, sequence (Q03431 27-593): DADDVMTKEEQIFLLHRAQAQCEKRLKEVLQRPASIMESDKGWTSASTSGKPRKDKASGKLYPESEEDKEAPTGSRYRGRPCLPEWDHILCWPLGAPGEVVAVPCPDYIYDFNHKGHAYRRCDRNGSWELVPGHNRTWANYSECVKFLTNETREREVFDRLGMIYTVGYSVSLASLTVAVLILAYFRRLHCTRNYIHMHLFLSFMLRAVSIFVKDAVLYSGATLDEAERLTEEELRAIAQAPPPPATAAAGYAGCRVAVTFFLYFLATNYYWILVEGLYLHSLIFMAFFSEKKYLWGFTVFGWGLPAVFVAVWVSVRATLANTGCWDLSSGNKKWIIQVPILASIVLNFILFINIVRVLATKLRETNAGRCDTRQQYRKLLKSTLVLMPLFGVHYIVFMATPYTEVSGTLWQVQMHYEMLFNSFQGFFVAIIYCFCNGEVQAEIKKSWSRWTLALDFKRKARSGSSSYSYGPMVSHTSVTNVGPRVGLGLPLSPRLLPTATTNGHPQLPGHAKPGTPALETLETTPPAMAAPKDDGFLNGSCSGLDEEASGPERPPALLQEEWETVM

## PTH-Fc fusion protein
  Kd: 2300 nM

## Parathyroid Hormone PTH (1-34) (peptide)
  Kd: 2310 nM
